{"source": "patent US8669088B2", "about": "“Enzyme associated with equol synthesis” (Otsuka Pharmaceutical Co., Ltd., priority 2007, dated 2014)", "molecules": {"B1": {"name": "E2 enzyme: polypeptide (SEQ ID NO: 7) having an activity to synthesize tetrahydrodaidzein using dihydrodaidzein as a substrate (protein, listed as Lactococcus garvieae)", "chain": "MAQEVKVPKMPGAPVFGKWISPEESVGQRLKGKKILLTGTTKGVGRVTQELLCAHGAFVCGSGRTPGVAASVADELKAKGYQAAGMDVDLSDYDAVKKWVEECAELMGGIDVVINNASHPGMAPFGEMTPEIWNYGIKNELDLVYNVCNCAWPYLQKADGASIIITSSTVALQGSNSPQACHAACKGACLSLARQLAAEGGPFGIRCNSVTPGLVWTEAMSNIPKEMASGLVAAQTTQQAVDPMDIAYAYLFLASDESRQITAANIPVDGGCAGAVTGGMQGEIEV"}, "B2": {"name": "E1 enzyme: polypeptide (SEQ ID NO: 1) having an activity to synthesize dihydrodaidzein using daidzein as a substrate (protein, listed as Lactococcus garvieae)", "chain": "MKNKFYPKTFERGYIGNLEVENRAIRMPMGTELGNPDGSPSWASLKAYAEAADGGTGIVFMDNAGVTQFHHVGLSLASDNYIGPMSVLAKTIKQHGAIPGLQIVHPGRDAAFVRGDDLISSSRIQWEPWYENGGAVPRELTIEEIHDFVGYFGDCALRAQTAGFEIVDVHAACGVLLSNFLSPRNNTRNDMYGGSLHNRARFLLEVIRDIKKKCPNLPLAIRLSGIDFEPDGITIEETCEVAKMCEAAGADAINITWGSHAEVINAAGLLSKHGANHVEAAKMIKDAVSIPTMLCGGIYSPEIGEKLLEDGVCDFIGIGKPALADPMWAKKAAEGRPEDIRPCIGCGVGCHDRGMLSGGVVQCAVNAALYKFDEPVYPQAEVPKKVIIIGAGPAGCEAAITAKKCGHDVTIYEKRKIGGVLKEATVSDSKEDLGRLITYYETQLKKEGIEVIYEEATADTVVAGGFDVAIVACGATVRNLNIDGQDDPSVVYAMDFLDNDCKSDADRVVVVGGGIVGAETALILAEERGKDVTITTRSPEFFVSGVMGIAYMVRLGMAGVTIKPSTQLVAVKDGKPMFAGPRGLETLDVDQTIISSGFVPTFNQFRAQIEEKCEDVRVIGIGDCKASRMVMDAVHEGYIAGCNL"}, "B3": {"name": "E3 enzyme: polypeptide (SEQ ID NO: 13) having an activity to synthesize equol using tetrahydrodaidzein as a substrate (protein, listed as Lactococcus garvieae)", "chain": "MAEFDVEYDLVVVGGGASGKSAALIAAREGKRVVVLEKMPETGGLSMYAEGTAAFESSIQNELGTPRLSKYHFPTKQEGIEKFMGYSHQRANYDVVRAFVENSAETIDIYRDLGVVYKACDIAAEDDPNEVWTFHLPEGLGAHCQEVLLDAIQKLDVDIFTSTPAKELIIEDGAVVGVVAESDGEPLRVGGKAVILATGGMGSSPERIFKYSWFAPAAYNMNTLTPLQNVGDGLDLALSAGADPTYITTCPILAAGGRDMTMDSQVGGAGVNPGVWINKTGRRFAAESVAENIGDIGTYYGKQPGGVVWSILSQADIDRLVAEGSEIAIGEFVVYHKPMERLPIELEAHLESGLVKKAGSFEELAALIDVPVDTFVATMADYNEACEKGYDDAFMKKPQYLRPMVEGPFYAIPLATGTMGSAGGIRINGNMQVVDADYNAIPGLYAVGLDATGLYGDSYNMEVPGAANGFAHTSGRIAARHAISTM"}}, "key": {"dihydrodaidzein [1]": {"tested_on": "dihydrodaidzein", "assay": "Tetrahydrodaidzein biosynthesis activity in centrifuged supernatant of disrupted cell material and NADH or NADPH dependency (Example B2)", "format": "biochemical, Lactococcus 20-92 strain", "details": "centrifuged supernatant of disrupted cells; 37° C., 2 hours; HPLC (FIG. 11)", "experimental": "The frozen cells were thawed and centrifuged at 4° C. for 15 minutes (5,000×G). The pellet was used in the test below. First, the pellet (wet weight 2.7 g) was suspended in 10 ml of a 0.1 M phosphate-potassium solution containing 1 mM PMSF and 5 mM sodium hydrosulfite. After preheating at 37° C. for 5 minutes, lysozyme was added in an amount of 100 mg per gram of the pellet (wet weight) to cause a reaction at 37° C. for 1.5 hours. Then, an equivalent amount of 0.1 M dipotassium phosphate solution was added to the reaction mixture, and the mixture was vigorously agitated with a vortex mixer after adding zirconia-silica beads (3 ml). The cells were then disrupted with a sonicator (Branson Sonifier Cell Disruptor 200) (3 cycles of a 5-minute sonication and a 2-minute rest). The disrupted cell suspension was centrifuged at about 10,000×G for 15 minutes to obtain a supernatant, which was then used as an enzyme source. An enzyme reaction mixture of the composition below was prepared, and was incubated at 37° C. for 2 hours. After incubation, 5 mL of ethyl acetate was added to the enzyme reaction product for extraction. Then, the product was dried to prepare a sample for HPLC analysis. [table]"}, "[2]": {"tested_on": "His-tagged recombinant E1 enzyme", "assay": "Influence of metal ions / reducing agent on dihydrodaidzein synthesis activity of E1 enzyme", "format": "biochemical, Lactococcus 20-92 strain", "details": "for activation of E1 enzyme (dihydrodaidzein synthesizing enzyme activity): general statement in the description; for influence of metal ions on the conversion activity from daidzein to dihydrodaidzein: 100 μl of 100 mM metal ion solution in 1000 μl, 37° C., 2 hours, HPLC (FIG. 26)", "experimental": "Using the His-tagged recombinant E1 enzyme ([…]) expressed in Escherichia coli, purified by Ni-Sepharose, as an enzyme source, the influence of metal ions on the conversion activity from daidzein to dihydrodaidzein was examined. Various metals (MnCl2.2H2O, FeSO4.7H2O, CaCl2.2H2O, Zn(CH3C00)2.2H2O, CoSO4.7H2O, MgSO4.7H2O, NiSO4.6H2O) were dissolved in distilled water to obtain a concentration of 100 mM. Using the metal ion solution, an enzyme reaction mixture of the composition below was prepared, and was reacted at 37° C. for 2 hours to measure the activity. [table] After incubation, 3 mL of ethyl acetate was added to the obtained enzyme reaction mixture for extraction. After drying, the extract was dissolved by the mobile phase (eluent). The dissolved product was analyzed by HPLC to measure the contents of daidzein and dihydrodaidzein in the enzyme reaction mixture."}, "[3]": {"tested_on": "disrupted cell material of Lactococcus 20-92 strain", "assay": "Enzyme reaction with disrupted cell material of Lactococcus 20-92 strain as enzyme source (Example B1)", "format": "biochemical", "details": "10 μg/mL substrate; 2 mM NADPH, 2 mM NADH; 37° C., 2 hours; HPLC (FIG. 9)", "experimental": "The Lactococcus 20-92 strain cells preserved at −80° C. were quickly thawed. The cells were suspended by tapping, and centrifuged at 4° C. (8,000 rpm×5 min) using a centrifuge VC-960 (Taitec). After removing the supernatant, 0.1 M potassium phosphate buffer/1 mM PMSF (phenylmethanesulfonyl fluoride)/2 mM DTT (dithiothreitol)/5 mM sodium hydrosulfite (pH 7.0) were added to obtain a cell suspension. The cell suspension was placed in a 2 ml tube prepared to include zirconia-silica beads (about 0.8 mL, 0.1 mm, 1 lb; Wakenyaku Co., Ltd.), and the tube was charged with 0.1 M potassium phosphate solution/1 mM PMSF/2 mM DTT/5 mM sodium hydrosulfite (pH 7.0) to fill the tube almost completely. For disruption, the tube was closed and kept on ice, where a cycle of 6,500 rpm×20 sec centrifugation and ice-cooling was repeated four times using FastPrep®-FP100A (Thermo Electron Corporation). The resulting disrupted cell material was used as an enzyme source in an enzyme reaction.\nA 1 mL enzyme reaction mixture of the composition below, containing 0.1 ml of the disrupted cell material obtained in (1) was prepared, and the mixture was incubated at 37° C. for 2 hours. After incubation, 3 mL of ethyl acetate was added to the resulting enzyme reaction product for extraction. The product was dried to prepare a sample for HPLC analysis. […]"}, "dihydrodaidzein [4]": {"tested_on": "dihydrodaidzein", "assay": "Enzyme property of E2 enzyme (tetrahydrodaidzein synthesis using dihydrodaidzein as a substrate)", "format": "biochemical", "experimental": "Regarding polypeptides (Bb) and (Bc), the activity to synthesize tetrahydrodaidzein using dihydrodaidzein as a substrate can be confirmed as follows. First, a polypeptide of interest is added to a substrate solution of the composition below at a concentration of 0.001 mg/mL. The solution is then incubated at 37° C. for 2 hours to check for the presence or absence of tetrahydrodaidzein in the solution. The presence of tetrahydrodaidzein in the solution after incubation is used as an indicator of the polypeptide's activity to synthesize tetrahydrodaidzein using dihydrodaidzein as a substrate. Since E2 polypeptide has an enzyme activity to synthesize tetrahydrodaidzein using dihydrodaidzein as a substrate, E2 polypeptide is also referred to as E2 enzyme. […] The optimal temperature of E2 enzyme is in the vicinity of 37° C., and the optimal pH is 4.5."}, "daidzein": {"tested_on": "daidzein", "assay": "Enzyme property of E1 enzyme (dihydrodaidzein synthesis using daidzein as a substrate)", "format": "biochemical", "experimental": "Regarding polypeptides (Ab) and (Ac), the activity to synthesize dihydrodaidzein using daidzein as a substrate can be confirmed as follows. First, a polypeptide of interest is added to a substrate solution of the composition below at a concentration of 0.001 mg/mL. The solution is then incubated at 37° C. for 2 hours to check for the presence or absence of dihydrodaidzein in the solution. The presence of dihydrodaidzein in the solution after incubation is used as an indicator of the polypeptide's activity to synthesize dihydrodaidzein using daidzein as a substrate.\nSince E1 polypeptide has an enzyme activity to synthesize dihydrodaidzein using daidzein as a substrate, E1 polypeptide is also referred to as E1 enzyme. E1 enzyme is activated by the presence of a reducing agent such as Na2S2O4 and metal ions such as Fe^2+ and Mn^2+. […] The optimal temperature of E1 enzyme is in the vicinity of 30° C., and the optimal pH is 7.0."}, "tetrahydrodaidzein": {"tested_on": "tetrahydrodaidzein", "assay": "Enzyme property of E3 enzyme (equol synthesis using tetrahydrodaidzein as a substrate)", "format": "biochemical", "experimental": "Regarding polypeptides (Cb) and (Cc), the activity to synthesize equol using tetrahydrodaidzein as a substrate can be confirmed as follows. First, a polypeptide of interest is added to a substrate solution of the composition below at a concentration of 0.001 mg/mL. The solution is then incubated at 37° C. for 2 hours to check for the presence or absence of equol in the solution. The presence of equol in the solution after incubation is used as an indicator of the polypeptide's activity to synthesize equol using tetrahydrodaidzein as a substrate. Since E3 polypeptide has an enzyme activity to synthesize equol using tetrahydrodaidzein as a substrate, E3 polypeptide is also referred to as E3 enzyme. The optimal temperature of E3 enzyme is in the vicinity of about 23 to 37° C., and the optimal pH is 4.5."}}}
{"molecule": "NC(=O)C1=CN([C@@H]2O[C@H](COP(=O)(O)OP(=O)(O)OC[C@H]3O[C@@H](n4cnc5c(N)ncnc54)[C@H](OP(=O)(O)O)[C@@H]3O)[C@@H](O)[C@H]2O)C=CC1", "note": "[NADPH]", "values": [{"measurement": "coenzyme dependency of the conversion of dihydrodaidzein into tetrahydrodaidzein", "setting": "dihydrodaidzein [1]", "result": "much more strongly"}]}
{"molecule": "O=S([O-])S(=O)[O-].[Na+].[Na+]", "note": "[Na2S2O4]", "values": [{"measurement": "activation of E1 enzyme (dihydrodaidzein synthesizing enzyme activity)", "setting": "[2]", "result": "activated"}]}
{"molecule": "[Mn+2]", "note": "[Mn^2+]", "values": [{"measurement": "influence of metal ions on the conversion activity from daidzein to dihydrodaidzein", "setting": "[2]", "result": "stimulated the activity"}, {"measurement": "activation of E1 enzyme (dihydrodaidzein synthesizing enzyme activity)", "setting": "[2]", "result": "activated"}]}
{"molecule": "O=C1c2ccc(O)cc2OCC1c1ccc(O)cc1", "note": "(centres unmarked) [dihydrodaidzein]", "values": [{"measurement": "enzyme reaction product from dihydrodaidzein as a substrate", "setting": "[3]", "result": "production of trans-tetrahydrodaidzein"}]}
{"molecule": "[Fe+2]", "note": "[Fe^2+]", "values": [{"measurement": "influence of metal ions on the conversion activity from daidzein to dihydrodaidzein", "setting": "[2]", "result": "stimulated the activity"}, {"measurement": "activation of E1 enzyme (dihydrodaidzein synthesizing enzyme activity)", "setting": "[2]", "result": "activated"}]}
{"molecule": "B1", "values": [{"measurement": "coenzyme requirement of E2 enzyme", "setting": "dihydrodaidzein [4]", "result": "requires NADPH or NADH as a coenzyme"}, {"measurement": "optimal pH of E2 enzyme", "setting": "dihydrodaidzein [4]", "result": 4.5}, {"measurement": "optimal temperature of E2 enzyme", "setting": "dihydrodaidzein [4]", "result": "~37", "unit": "°C"}, {"measurement": "reverse reaction of E2 enzyme", "setting": "dihydrodaidzein [4]", "result": "synthesize dihydrodaidzein from tetrahydrodaidzein"}]}
{"molecule": "B2", "values": [{"measurement": "coenzyme requirement of E1 enzyme", "setting": "daidzein", "result": "requires NADPH or NADH as a coenzyme"}, {"measurement": "optimal pH of E1 enzyme", "setting": "daidzein", "result": 7.0}, {"measurement": "optimal temperature of E1 enzyme", "setting": "daidzein", "result": "~30", "unit": "°C"}, {"measurement": "reverse reaction of E1 enzyme", "setting": "daidzein", "result": "synthesize daidzein from dihydrodaidzein"}]}
{"molecule": "B3", "values": [{"measurement": "optimal pH of E3 enzyme", "setting": "tetrahydrodaidzein", "result": 4.5}, {"measurement": "reverse reaction of E3 enzyme", "setting": "tetrahydrodaidzein", "result": "synthesize tetrahydrodaidzein from equol"}]}
